# *1 amine or outer side, *2 acyl side, *3 side chain or, on linkers, in order; H or OH if unused. Primed or numbered codes have the meaning given here. Where no end group is shown, it is not given here. [ ]: non-standard residue; d: D form. Y(Me) = COc1ccc(C[C@H](N[*:1])C(=O)[*:2])cc1; Pip′ = 4-methylpiperazine; βAla = NCCC(=O)O
# T1: recombinant His-tagged full-length ERG (UniProt P11308 1-479, biotinylated with NHS-PEG4 biotin for the OctetRED assays)
# T1 construct: mature; Baculovirus expression in SF9 cells, Ni-NTA purified; also called wild-type ERG; wtERG; not shown: His tag
# T1 sequence (looked up): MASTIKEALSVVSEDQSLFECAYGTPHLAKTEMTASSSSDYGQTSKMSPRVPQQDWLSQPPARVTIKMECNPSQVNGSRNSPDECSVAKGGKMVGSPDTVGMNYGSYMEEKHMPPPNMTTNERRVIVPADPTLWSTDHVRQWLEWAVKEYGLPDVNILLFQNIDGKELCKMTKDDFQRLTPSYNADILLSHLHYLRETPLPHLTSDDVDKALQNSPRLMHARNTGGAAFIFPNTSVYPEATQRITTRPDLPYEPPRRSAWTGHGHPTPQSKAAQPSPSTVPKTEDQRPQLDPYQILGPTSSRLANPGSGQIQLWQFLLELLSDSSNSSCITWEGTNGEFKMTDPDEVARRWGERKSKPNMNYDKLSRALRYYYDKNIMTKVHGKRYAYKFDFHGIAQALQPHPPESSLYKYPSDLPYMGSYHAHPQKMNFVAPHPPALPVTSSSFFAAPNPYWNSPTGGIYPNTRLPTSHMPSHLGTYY
# T2: TMPRSS2:ERG gene fusion product, endogenous in VCaP cells (UniProt P11308 33-479, limits assumed)
# T2 construct: In cell lysates, in cells or in xenograft tumors; also called endogenous ERG; VCaP ERG
# T2 sequence (looked up): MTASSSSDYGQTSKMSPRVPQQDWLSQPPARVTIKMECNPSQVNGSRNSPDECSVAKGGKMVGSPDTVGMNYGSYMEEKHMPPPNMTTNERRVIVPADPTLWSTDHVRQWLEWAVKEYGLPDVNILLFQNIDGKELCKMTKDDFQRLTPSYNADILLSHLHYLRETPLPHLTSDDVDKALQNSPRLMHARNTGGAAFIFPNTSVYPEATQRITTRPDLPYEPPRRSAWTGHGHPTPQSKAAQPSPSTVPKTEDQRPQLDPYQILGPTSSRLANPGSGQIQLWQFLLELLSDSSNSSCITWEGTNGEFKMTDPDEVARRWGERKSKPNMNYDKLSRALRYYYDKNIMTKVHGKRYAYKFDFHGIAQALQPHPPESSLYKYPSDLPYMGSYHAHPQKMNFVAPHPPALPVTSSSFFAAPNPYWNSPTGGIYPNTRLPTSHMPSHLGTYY
# T3: Halo-tagged full-length ERG (UniProt P11308 1-479)
# T3 construct: mature; In vitro transcription/translation in wheat germ lysate; also called Halo-ERG fusion protein; not shown: HaloTag (about 35 kDa), N-terminal
# T3 sequence (looked up): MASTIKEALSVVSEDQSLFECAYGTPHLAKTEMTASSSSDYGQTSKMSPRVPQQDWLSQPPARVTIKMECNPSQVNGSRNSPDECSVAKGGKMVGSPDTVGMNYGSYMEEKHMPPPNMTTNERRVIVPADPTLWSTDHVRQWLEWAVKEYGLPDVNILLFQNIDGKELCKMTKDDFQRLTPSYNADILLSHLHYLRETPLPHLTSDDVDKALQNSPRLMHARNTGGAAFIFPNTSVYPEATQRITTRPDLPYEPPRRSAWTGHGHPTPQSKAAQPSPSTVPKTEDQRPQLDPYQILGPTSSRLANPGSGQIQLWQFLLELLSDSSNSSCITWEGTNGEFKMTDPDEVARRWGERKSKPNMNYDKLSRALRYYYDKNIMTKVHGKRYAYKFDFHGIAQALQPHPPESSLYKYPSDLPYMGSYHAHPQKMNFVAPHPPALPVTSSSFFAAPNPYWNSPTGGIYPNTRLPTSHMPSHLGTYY
# Tests used:
# [1] = molecular target: T1, recombinant His-tagged full-length ERG; assay: OctetRED; Kd table of synthetic peptides on ERG
# Experimental: (§1) The interaction coefficients between ERG and synthetic peptides or peptidomimetics were determined by biolayer interferometry technology using the Octet Red system (ForteBio). Purified ERG and GUS proteins were biotinylated by EZLink NHS-PEG4 Biotinylation Kit (Thermo Scientific) following the manufacturer's protocol and any unincorporated biotin was removed from the reactions with Zeba 2 ml desalt columns (Thermo). Biotinylated proteins (500 μg/ml) were then incubated with super streptavidin biosensors in binding buffer (20 mM HEPES pH 7.4, 150 mM NaCl), blocked with 10 μg/ml biocytin and washed three times in binding buffer. Peptides were serially diluted in binding buffer, mixed with the protein-coupled biosensors and peptidomimetic:protein association/dissociation was monitored for 10 min at 25° C. Nonspecific binding from the signal obtained from peptidomimetic:GUS interactions was subtracted from that of peptidomimetic:ERG interactions and baseline signal drift was controlled by monitoring immobilized ERG without peptide. Octet Red analysis software was used to analyze the data.
# [2] = molecular target: T1, recombinant His-tagged full-length ERG; assay: OctetRED BLI
# [3] = molecular target: T1, recombinant His-tagged full-length ERG; assay: OctetRED BLI, alanine substitution peptides of TAT-EIP1
# [4] = molecular target: T1, recombinant His-tagged full-length ERG; assay: OctetRED BLI, biotinylated ERG on streptavidin sensors
# Experimental: as §1
# [5] = molecular target: T1, recombinant His-tagged full-length ERG; assay: Kd table of synthetic peptides on ERG; assay not given
# [6] = molecular target: T1, recombinant His-tagged full-length ERG; assay: as above; remark: listed apart in the source
# Experimental: as §1
# [7] = molecular target: T1, recombinant His-tagged full-length ERG; assay: OctetRED biolayer interferometry, biotinylated ERG on streptavidin sensors, peptide in solution
# Experimental: as §1
# [8] = molecular target: T1, recombinant His-tagged full-length ERG; assay: Kd table of synthetic peptides on ERG; assay not given; remark: listed apart in the source
# [9] = molecular target: T1, recombinant His-tagged full-length ERG; assay: OctetRED biolayer interferometry, steady-state analysis
# Experimental: as §1
# [10] = molecular target: T1, recombinant His-tagged full-length ERG; assay: Kd table of synthetic peptides on ERG; assay not given; remark: listed apart in the source
# [11] = molecular target: T2, TMPRSS2:ERG gene fusion product, …; assay: pull-down of VCaP lysate with biotinylated peptide, ERG immunoblot
# Experimental: Approximately 1 mg of soluble VCaP cell lysate prepared in RIPA buffer (Invitrogen) was incubated with varying amounts of biotinylated peptides for 2 hours at 4° C. HaloLink agarose beads (20 μl) were added to the peptide-lysate mixture and incubated for an additional 4 hours. Beads were then pelleted by centrifugation, washed three times in PBS-T and loaded into an SDSPAGE gel followed by Western blot analysis. Total VCaP cell lysate was loaded for positive control.
# [12] = molecular target: T3, Halo-tagged full-length ERG; assay: competitive pull-down: Halo-ERG with purified DNA-PKcs or GST-AR and peptide, HaloLink beads, immunoblot
# Experimental: Halo-ERG fusion protein was expressed using in vitro transcription/translation system as described above. […] Protein mixtures were incubated with or without the peptides in PBS-T (0.1% Tween) at 4° C. overnight. […] The next day 10 μl of HaloLink beads were mixed with the protein-peptide mixture, incubated at RT for 1 hour, washed with 4× in PBS-T and eluted into SDS sample buffer. […] HaloLink beads without incubation with fusion proteins were used as negative controls.
binder,measurement,setting,value
Ac-LPPYLF-NH2 (also called Ac-LPPYLF-NH2) [6LF-A],Kd,[1],> 100 µM
"LPPYLFTGGRKKRRQRRRG (not fully specified, also called FITC-labeled TAT-EIP1) [TAT-EIP1 cell-permeable peptide]",Kd,[2],0.68 µM
LAPYLFTGGRKKRRQRRRG (also called P^2→A) [TAT-EIP1 with P2 to A substitution],fold increase in Kd against parental TAT-EIP1,[3],> 100 fold
LPPALFTGGRKKRRQRRRG (also called Y→A) [TAT-EIP1 with Y to A substitution],fold increase in Kd against parental TAT-EIP1,[3],> 100 fold
Ac-LPPYL-NH2 (also called Ac-LPPYL-NH2) [5LL-A],Kd,[1],12.4 µM
LSFGSLP [EIP2 synthetic peptide LSFGSLP],Kd,[4],1.8 µM
FTFGSLP [synthetic peptide FTFGSLP],Kd,[4],3.9 µM
LTFGSLP [synthetic peptide LTFGSLP],Kd,[4],2.9 µM
LSFGTFP [synthetic peptide LSFGTFP],Kd,[4],9.2 µM
FSFGSLP [synthetic peptide FSFGSLP],Kd,[4],2.1 µM
LAFGSLP [synthetic peptide LAFGSLP],Kd,[4],6.4 µM
LSFGSFP [synthetic peptide LSFGSFP],Kd,[4],12.5 µM
"[Pip′]PPYL (not fully specified, also called more soluble version of 4PL-A) [PPYL with 4-methylpiperazine (Pip) added]",Kd,[5],3.3 µM
Ac-PPYLF-NH2 (also called Ac-PPYLF-NH2) [5PF-A],Kd,[1],9.44 µM
H-PYLFT-NH2 [5PT-N (NH2-PYLFT-NH2)],Kd,[1],1.31 µM
MTFGTLP [synthetic peptide MTFGTLP],Kd,[4],4.6 µM
YTFGTLP [synthetic peptide YTFGTLP],Kd,[4],3.2 µM
[Pip′]PP[Y(Me)]L-NH2 (also called Pip-PPY(Me)L-NH2) [4PL-3Y(Me)],Kd,[6],15.5 µM
LSAGSAP (Alanine substitution control) [muEIP2 synthetic peptide LSAGSAP],binding result,[7],no binding (tested: 20 µM)
H-LPPYLF-NH2 (also called H2N-LPPYLF-NH2) [6LF-N],Kd,[1],4.88 µM
H-PPYLFT-NH2 (also called H2N-PPYLFT-NH2) [6PT-N],Kd,[1],11.5 µM
H-LPPYL-NH2 (also called H2N-LPPYL-NH2) [5LL-N],Kd,[1],9.6 µM
H-PPYL-NH2 (also called H2N-PPYL-NH2) [4PL-N],Kd,[1],> 100 µM
same,Kd,[8],94.2 µM
"[Pip′][βAla][βAla]PPYL-NH2 (not fully specified, also called Pip-βAβA-PPYL-NH2) [4PL-Pip2]",Kd,[5],3 µM
FSASSPA [synthetic peptide FSASSPA],Kd,[4],21.1 µM
Ac-PYLFT-NH2 (also called Ac-PYLFT-NH2) [5PT-A],Kd,[1],5.15 µM
LPPTFLY [scrambled peptide LPPTFLY],binding result,[9],no binding (tested: 20 µM)
Ac-LPPYLFT-OH (Variant inferred from the sentence on capping) [7-mer LPPYLFT capped at the N-terminus only (Ac-LPPYLFT)],Kd,[8],2.8 µM
LRFGTLP [synthetic peptide LRFGTLP],Kd,[4],7.9 µM
LPPYLFT [EIP1 synthetic peptide LPPYLFT],Kd,[4],0.6 µM
same,Kd,[8],2.8 µM
same,Kd,[10],0.972 µM
Ac-LPPHLFT-NH2 (also called Ac-LPPHLFT-NH2) [7LT-4H],Kd,[10],> 100 µM
Ac-LPPWLFT-NH2 (also called Ac-LPPWLFT-NH2) [7LT-4W],Kd,[10],> 100 µM
Ac-LPPFLFT-NH2 (also called Ac-LPPFLFT-NH2) [7LT-4F],Kd,[10],> 100 µM
Ac-LPPDLFT-NH2 (also called Ac-LPPDLFT-NH2) [7LT-4D],Kd,[10],> 100 µM
Ac-PPYL-NH2 (also called capped 4-mer peptide PPYL) [4PL-A (Ac-PPYL-NH2)],Kd,[8],1.4 µM
PPYE (not fully specified) [PPYE peptide (mutation of PPYL to PPYE)],binding result,[5],no binding
[Pip′]PPYA-NH2 (also called Pip-PPYA-NH2) [4PL-4A],Kd,[6],7.9 µM
[Pip′]PPFL-NH2 (also called Pip-PPFL-NH2) [4PL-3F],Kd,[6],3.9 µM
[Pip′]PPYF-NH2 (also called Pip-PPYF-NH2) [4PL-4F],binding result,[6],no binding
[Pip′]PPYD-NH2 (also called Pip-PPYD-NH2) [4PL-4D],Kd,[6],14.8 µM
H-PPYLF-NH2 (also called H2N-PPYLF-NH2) [5PF-N],Kd,[1],10.2 µM
"LSAGSAP (also: biotin, position not given here, also called biotin-muEIP2; mutant EIP2 (muEIP2)) [biotinylated muEIP2 peptide]",binding result,[11],no binding (tested: 20 µM)
LSFGSLPGGRKKRRQRRRG [TAT-EIP2 cell-permeable peptide],Kd,[2],1.11 µM
"LPPYLFT (not fully specified (N-terminus), also called more soluble version of EIP1) [LPPYLFT with 4-methylpiperazine (Pip) added]",Kd,[5],1.7 µM
Ac-PPYLFT-NH2 (also called Ac-PPYLFT-NH2) [6PT-A],Kd,[1],3.64 µM
LPPALFT (Alanine substitution control) [muEIP1 synthetic peptide LPPALFT],binding result,[12],no binding (tested: 50 µM)
same,binding result,[7],no binding (tested: 20 µM)
